Experimental findings from patent US20220305006 are described below.

The target of data set [1] is BACE inhibitor 1 (statine BACE inhibitor 1).
For another data set, the target named is T1, Peptide 65005.
T1 chain: NLTTYPYFIPL

A further data set concerns the target T2, Peptide 65007.
T2 chain: ALYPYFLPISAK

Data set [2] deals with recombinant sAPPα, human, amino acids 19-613, P05067.
Sequence of recombinant sAPPα, human, amino acids 19-613, P05067 (P05067 19-613): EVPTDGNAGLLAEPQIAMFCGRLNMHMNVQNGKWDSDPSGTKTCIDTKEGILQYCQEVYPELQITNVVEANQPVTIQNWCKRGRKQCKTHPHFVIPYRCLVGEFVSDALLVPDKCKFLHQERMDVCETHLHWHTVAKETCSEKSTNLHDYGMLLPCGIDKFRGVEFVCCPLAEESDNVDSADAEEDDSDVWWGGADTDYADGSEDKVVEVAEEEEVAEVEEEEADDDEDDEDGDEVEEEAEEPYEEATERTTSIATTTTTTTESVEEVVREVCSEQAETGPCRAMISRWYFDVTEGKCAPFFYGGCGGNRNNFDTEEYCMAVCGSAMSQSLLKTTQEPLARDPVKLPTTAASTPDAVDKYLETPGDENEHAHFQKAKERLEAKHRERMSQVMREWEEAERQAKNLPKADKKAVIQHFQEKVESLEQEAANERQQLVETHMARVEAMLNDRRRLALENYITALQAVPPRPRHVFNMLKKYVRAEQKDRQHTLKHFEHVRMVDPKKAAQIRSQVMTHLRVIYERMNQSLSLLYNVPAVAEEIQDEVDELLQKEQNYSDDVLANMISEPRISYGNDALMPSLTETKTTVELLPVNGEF

B1: BACE in mouse primary cortical neurons (protein)
chain: ETDEESEEPGRRGSFVEMVDNLRGKSGQGYYVEMTVGSPPQTLNILVDTGSSNFAVGAAPHPFLHRYYQRQLSSTYRDLRKGVYVPYTQGKWEGELGTDLVSIPHGPNVTVRANIAAITESDKFFINGSNWEGILGLAYAEIARPDDSLEPFFDSLVKQTHIPNIFSLQLCGAGFPLNQTEALASVGGSMIIGGIDHSLYTGSLWYTPIRREWYYEVIIVRVEINGQDLKMDCKEYNYDKSIVDSGTTNLRLPKKVFEAAVKSIKAASSTEKFPDGFWLGEQLVCWQAGTTPWNIFPVISLYLMGEVTNQSFRITILPQQYLRPVEDVATSQDDCYKFAVSQSSTGTVMGAVIMEGFYVVFDRARKRIGFAVSACHVHDEFRTAAVEGPFVTADMEDCGYNIPQTDESTLMTIAYVMAAICALFMLPLCLMVCQWRCLRCLRHQHDDFADDISLLK
On to B1, for which, in data set [1], the “CHL1 and L1CAM cleavage (uncleaved substrate/α-tubulin OD ratio, immunoblot), 10 µM, 24 hours” value was “only BACE Inh 4 (blue) clearly inhibited cleavage; BACE Inh 1, peptides 65005 and 65007 and sAPPα did not”; the “uncleaved neurofascin (immunoblot), 10 µM, 24 hours” value is “Only BACE Inh 4 and BACE Inh 1 treatment resulted in an increase of uncleaved NrCAM or neurofascin, respectively”. In the data set with Peptide 65005, the “CHL1 and L1CAM cleavage (uncleaved substrate/α-tubulin OD ratio, immunoblot), 10 µM, 24 hours” value was “only BACE Inh 4 (blue) clearly inhibited cleavage; BACE Inh 1, peptides 65005 and 65007 and sAPPα did not”; the “uncleaved NrCAM and neurofascin (immunoblot), 10 µM, 24 hours” value is listed as “none of the other inhibitors increased the amount of uncleaved NrCAM or neurofascin substrate”. In addition, in the data set with Peptide 65007, the “CHL1 and L1CAM cleavage (uncleaved substrate/α-tubulin OD ratio, immunoblot), 10 µM, 24 hours” value is “only BACE Inh 4 (blue) clearly inhibited cleavage; BACE Inh 1, peptides 65005 and 65007 and sAPPα did not”; the “uncleaved NrCAM and neurofascin (immunoblot), 10 µM, 24 hours” value is “none of the other inhibitors increased the amount of uncleaved NrCAM or neurofascin substrate”. Further, in data set [2], the “CHL1 and L1CAM cleavage (uncleaved substrate/α-tubulin OD ratio, immunoblot), 1 µM, 24 hours” value is “only BACE Inh 4 (blue) clearly inhibited cleavage; BACE Inh 1, peptides 65005 and 65007 and sAPPα did not”; the “uncleaved NrCAM and neurofascin (immunoblot), 1 µM, 24 hours” value is given as “none of the other inhibitors increased the amount of uncleaved NrCAM or neurofascin substrate”.
